From publication PMC3378865 (Nucleic Acids Research, 2012)

Target: the molecule itself
Assay: cross-linking

B1: OxyR (PA5344) of Pseudomonas aeruginosa PAO1 with a carboxyl-terminal His-tag (natural protein, UniProt Q9HTL4 1-310, looked up)
chain: MTLTELRYIVTLAQEQHFGRAAERCHVSQPTLSVGVKKLEDELGVLIFERSKSAVRLTPVGEGIVAQAQKVLEQAQGIRELAQAGKNQLAAPLKVGAIYTIGPYLFPHLIPQLHRVAPQMPLYIEENFTHILRDKLRTGELDAIIIALPFQEADVLTKPLFDEPFYVLMPADHPWTAKASIDSELLNDKSLLLLGEGHCFRDQVLEACPTVRKGDENKHTTVESSSLETIRHMVASGLGVSVLPFSAVDSHHYAPGVIEVRPFSAPVPFRTVAIAWRASFPRPRAIEVLADSIRLCSVARPQTQEQPQIA
With B1 as the protein, how does the “stoichiometry N” value read?
The value was 2.
